Laboratory results published in the nanobody polyreactivity screen of Harvey et al. (2022).

Assay: yeast display, Sf9 membrane polyspecificity reagent, FACS + sequencing; frameworks hold sequencing errors
Method in brief: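 Synthetic nanobody libraries on Saccharomyces cerevisiae BJ5465 were galactose-induced for 36–48 hours, stained 1 hour at 4 °C with 10% biotinylated, detergent-solubilized Sf9 membrane reagent and enriched on streptavidin microbeads. FACS then separated cells into low and high (top ~1%) gates by anti-HA (expression) and streptavidin (reagent binding) fluorescence. Genes were colony-PCR amplified, MiSeq 2 × 250 sequenced and CDR-length filtered. A clone's polyreactivity label is that of its gate of origin.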

Row | Sequence | polyreactivity (PSR sort gate)
1 | QVQLVESGGGLVQAGGSLRLSCAASGRILKRNAMGWYRQAPGKERELVAAISWSTGTTYYADSVKGRFTISRDNAKNTVYLQMNSLKPEDTAVYYCAKQIVSGRRVDRNDYWGQGTQVTVSS | low polyreactivity
2 | QVQLVESGGGLVQAGGSLRLSCAASGRILKSYAMGWYRQAPGKERELVAAITSSGVSTYYADSVKGRFTISRDNAKNTVYLQMNSLKPEDTAVYYCAARNYRYPIMGYWGQGTEVTVSS | high polyreactivity
3 | QVQLVESGGGLVQAGGSLRLSCAASGRILLTYAMGWYRQAPGKERELVAAISSDSRTYYADSVKGLFTISRDNAKNTVYLQMNSLKPEDTAVYYCVRRRYKYDYWGQGTQVTVSS | low polyreactivity
4 | QVQLVESGGGLVQAGGSLRLSCAASGRILLYNAMGWYRQAPGKERELVAAISRSGGSTYYADSVKGRFTISRDNAKNTVYLQMNSLKPEDTAVYYCAAQHGYPRYYYWGQGTQVTVSS | high polyreactivity
5 | QVQLVESGGGLVQAGGSLRLSCAASGRILNTYTMGWYRQAPGKERELVAAITSRGGSTYYADSVKGRFTISRDNAKNTVYLQMNSLKPEDTAVYYCAAGYPYDYWGQGTQVTVSS | high polyreactivity
6 | QVQLVESGGGLVQAGGSLRLSCAASGRILPGNAMGWYRQAPGKERELVATITNGGRTYYADSVKGRFAISRDNAKNTVYLQMNSLKPVDTAVYYCAAVVVRFIYVYFEFEWGQGTQVTVSS | low polyreactivity
7 | QVQLVESGGGLVQAGGSLRLSCAASGRILPLYAMGWYRQAPGKERELVADITGSDGSTYYADSVKGRFTISRDNAKNTVYLQMNSLKPEDTAVYYCATDAIGRTPSDPWDYYYWGQGTQVTVSS | low polyreactivity
8 | QVQLVESGGGLVQAGGSLRLSCAASGRILPWYAMGWYRQEPGKERELVARIRSTDSSNYADSVKGRFTISRDNAKNTVYLQMNSLKPEDTAFYYCAKVQWGFPYAWLGSDYWGQGTQVTVSS | low polyreactivity
9 | QVQLVESGGGLVQAGGSLRLSCAASGRILRSNAMGWYRQAPVKERELVATISQRGGSTYADSVKGRFTISRDNAKNTVYLQMNSLKPEDTAVYYCNVGVPIGGFMSYWGGDYWGQGTQVTVSS | low polyreactivity
10 | QVQLVESGGGLVQAGGSLRLSCAASGRILRVYAMGWYRQAPGKERELVAAISSGGSTNYADSVKGRFTISRDNAKNTVYLQMNSLKPEDTAVYDCAATVRGVGYRYYYWGQGTQVTVSS | high polyreactivity
11 | QVQLVESGGGLVQAGGSLRLSCAASGRILRYNAMGWYRQAAGKERELVAAISSGGSTYADSVKGRFTISRDNAKNTVYLQMNSLKPDDTAVYYCNAPSVGAAFDYWGQGTQVTVSS | high polyreactivity
12 | QVQLVESGGGLVQAGGSLRLSCAASGRILTTNAMGRYRQAPGKERELVATISTGSGRTYYADSVKGRFTISRDNAKNTVYLQMNSLKPEDTAVYYCAASRTLRKHRYEYWGQGTQVTVSS | high polyreactivity
13 | QVQLVESGGGLVQAGGSLRLSCAASGRILTYYAMGWYRPAPGKERELVAAISWRAGSTYYADSVKGRFTISRDNAKNTVYLQMNSLKPEDTAVYYCAADLPYWYNRKPIFPYYYWGQGTQVTVSS | high polyreactivity
14 | QVQLVESGGGLVQAGGSLRLSCAASGRILVGYAMGWYRQAPGKERELVAAITGSGASTYYADSVKGRFKISRDNAKNTVYLQMNSLKPEDTAVYYCAASYFNYGVGIWYDYWGQGTQVTVSS | high polyreactivity
15 | QVQLVESGGGLVQAGGSLRLSCAASGRILVSYAMGGYRQAPGKERELVAAISRSGGSTYYADSVKGRFTISLDTAKNTVYLQMNSLKPEDTAVYYCNVYRFSRYDYWGQGTLVTVSS | high polyreactivity
16 | QVQLVESGGGLVQAGGSLRLSCAASGRILWDYAMGWYRQAPGKERELVAAISTSSGSTYYADSVKGRFTISRDNAKNTVKLQMNSLKPEHTAVYYCAADNDYSPPWFEYWGQGTQVTVSS | low polyreactivity
17 | QVQLVESGGGLVQAGGSLRLSCAASGRILWWYAMGWYRQAPRKEREFFAAITTSGGSTYYADSVKGRFTISRDNAKNTVYLQMTSLKPEDNAVYYCAADLFVRNLVYTYDYDYWGQGTQVTVSA | high polyreactivity
18 | QVQLVESGGGLVQAGGSLRLSCAASGRILWYYTMGWYRQAPGKERELVAAISSGGRTHYADSVKGRFTISRDNAKNTVYLQMNSLKPVDTAVYYCAAKYGWGRFNYDYWGQGTQVTVSS | high polyreactivity
19 | QVQLVESGGGLVQAGGSLRLSCAASGRILYAYAMGWYRQAPGKERELVAAITWGGGNTYYADSVKGRFTISRDNAKNTVYLQMNSLKPEDTAVYYCAADASTVYSTVPEYDFWGQGTQVTVSS | low polyreactivity
20 | QVQLVESGGGLVQAGGSLRLSCAASGRILYGYAMGWYRQAPGKERELVAGISWRGGSTYYADSVKGRFTISRDNAKNTVYLQMNSLKPEDTAVYYCAARGWPSQVPVRVFRYDYWGQGTQVTVSS | high polyreactivity
21 | QVQLVESGGGLVQAGGSLRLSCAASGRILYGYAMGWYRQAPGKERELVASITWSGGSTYADSVKGRFTISRDNAKNTVYLQMNSLKPEDTAVYYCATRRGPKWQWLTYGYWGQGTKVTVSS | low polyreactivity
22 | QVQLVESGGGLVQAGGSLRLSCAASGRILYKYAMGWYRQAPGKERELVAAISRRGGSTFYADSVKGRFTISRDNAKNTVYLQMNSLKPEDTAVYYCAAGSTRYAGWTYNYWGQGTQVTVSS | high polyreactivity

Row | Sequence | polyreactivity (PSR sort gate)
23 | QVQLVESGGGLVQAGGSLRLSCAASGRILYKYAMGWYRQAPGKERELVAAISWRGTTTYYADSVKGRFTISRDNAKNTVYLQMNSLKPEDTAVYYGAIDRSYGYFSRPVSQYDYWGQGTQVTVSS | high polyreactivity
24 | QVQLVESGGGLVQAGGSLRLSCAASGRILYPYAMGWYRQAPGTERELVAAITFRGGNTYYADSVKGRFTISRDNAKNTVYLQMNSLKPEDTAVYYCAKRGGYWHKFDYWGQGTQVTVSS | high polyreactivity
25 | QVQLVESGGGLVQAGGSLRLSCAASGRILYQYAMAWYRQAPGKERELVASISGRSGRTRYADSVKGRFTISRDNAKNTVYLQMNSLKPEDTAVYYCNAGSSVLKYDYWGQGTQVTVSS | low polyreactivity
26 | QVQLVESGGGLVQAGGSLRLSCAASGRILYRNAMGWYRQAPGKERELVAAITTRGTSTYYADSVKGRFTISRDNAKNTVYLQMNSLKPEDTAVYYCAADSWFSYRGPLYYWGQGTQVTVSS | high polyreactivity
27 | QVQLVESGGGLVQAGGSLRLSCAASGRILYRYAMGWYRQAPGKERELVAAITWRGGTTYYADSVKGRFTISRDNAKNTVYLQMNSLKPEDTAVYYCNADWWRTLESDYWGQGTQVTVSS | low polyreactivity
28 | QVQLVESGGGLVQAGGSLRLSCAASGRILYSYAMGWYRQAPGKERELVASISLSGGRTYADSVKGRFTISRDNAKNTVYLQMNSLKPEDTAVYYCNASIRTSRYLWQFDYWGQGTQVTVSS | high polyreactivity
29 | QVQLVESGGGLVQAGGSLRLSCAASGRILYVNTMGWYRQAPGKERELVAGITSRVGSTYYADSVKGRFTISRDNAKNTVYLQMNSLKPEDTAVYYCNARDKFYVPSLYAYDYWGQGTQVTVSS | low polyreactivity
30 | QVQLVESGGGLVQAGGSLRLSCAASGRILYVYAMGWYIQAPGKERELVAAITSGGSTHYADSVKGRFTISRDNAKNTVYLQMNSLKPEDTAVYYCAAYTLRNRGGFNYWGQGTQVTVSS | high polyreactivity
31 | QVQLVESGGGLVQAGGSLRLSCAASGRILYYYAMGWYRQAPGKERELVAAITSGGSTYADSVKGRFTISRDNAKNTVYLQMNSLKPEDTAVYYCNARPVYGSRFYSAVRMEYWGQGTQVTVSS | low polyreactivity
32 | QVQLVESGGGLVQAGGSLRLSCAASGRIRRYYAMGWYRPAPGKEMELVAVITSSDGSTYYADSVKGRFTISRDNAKTTVYLQMNSLKPEDTAVDYCAAAPLWRLDSWSDPYRRYDYWGQGTQVTVSS | low polyreactivity
33 | QVQLVESGGGLVQAGGSLRLSCAASGRISDVYAMGWYRQAPGKERELVAVISWRGGTTRYADSVKGRFTISRDNAKNTVYLQMNSLKAEDTAVFYCAAKTVLWGQGTQVTVSS | high polyreactivity
34 | QVQLVESGGGLVQAGGSLRLSCAASGRISESNDMGWYRQAPGKERELVAAISSSGGSTYYADSVKGRFTISRDNAKNTVYLQMNSLKPVDTAVYYCNAVYYRTVLKIGVYEYDYWGQGTQVTVSS | low polyreactivity
35 | QVQLVESGGGLVQAGGSLRLSCAASGRISFRYAMGWYRQAPGKERELVAAINRGGITNYADSVKGRFTISRDNAKNTVYLQMNSLKPEDTAVYYCAARYASPRYKSKMDYWGQGTQVTVSS | high polyreactivity
36 | QVQLVESGGGLVQAGGSLRLSCAASGRISFRYAMGWYRQAPGKERELVAAINRGGITNYADSVKGRFTISRDNAKNTVYLQMNSLKTEDTAVYYCAARYASPRYKSKMEYWGQGTQVTVSS | high polyreactivity
37 | QVQLVESGGGLVQAGGSLRLSCAASGRISGGYAMGWYRQAPGKERELVAVISSGGRTYYADSVKGRFTISRDNAKNTVDLHMNSLKPEVTGVYYCNAYTWGIVDNYDYWGQGTQVTVSS | low polyreactivity
38 | QVQLVESGGGLVQAGGSLRLSCAASGRISNNAMGWYRQAPGKERELVAAITYRGSSTYYADSVKGRFTISRDNAKNTFYLQMISLKPEDTAVYYCAAQRSYAYEYWGQGTQVTVSS | high polyreactivity
39 | QVQLVESGGGLVQAGGSLRLSCAASGRISQIYAMGWYRQAPWKERELVARITSTDSTYYADSVKGRFTISRDNAKNTVYLQMNSLKPEDTAVYYCAASWWSPYDYWGQGTQVTVSS | low polyreactivity
40 | QVQLVESGGGLVQAGGSLRLSCAASGRISQNAMGWYRQAPGKERELVAAITFSGGSTYYADSVKGRFTISRDNAKNTVYFQMNSLKPEDTAVYYCNADWPAQWHYYDSKQDDYWGQGTQVTVSS | low polyreactivity
41 | QVQLVESGGGLVQAGGSLRLSCAASGRISRVYAMGWYRQAPGKERELVAAITSSGGSTYADSVKGRFTISRDNAKNTVYLQMNSLKPEDTAVYYCAADSYWYRFLKSRYDYWGQGTQVTVSS | low polyreactivity
42 | QVQLVESGGGLVQAGGSLRLSCAASGRISRYNTLGWSSQAPGKERELVAVISWSGASTYYADSVKGRFTISRDNAKNTVYLQMNSLKPEDTAVYYCAAYYRWYNYDYWGQGTQVTVSS | high polyreactivity
43 | QVQLVESGGGLVQAGGSLRLSCAASGRISSLYAMGWYRQAPGKERELVAGITWRGGSTYYADSVKGRFTISRDNAKNTVYLQMNSLKPEDTAVYYCNAVWVQQVVGDGKRTWNFWYDYWGQGTQVTVSS | low polyreactivity
